Results: patent US20230057071A1 (NOVARTIS AG, priority 2019, published 2023)

Target: T1, TIM-3/Galectin-9 interaction (Homo sapiens, UniProt Q8TDQ0)
T1 construct: purchased R&D Systems
Test: Plate-based (MesoScale) competition assay of the TIM-3/Galectin-9 interaction
Assay type: binding
Conditions: serial dilutions of antibody; labeled Galectin-9 100 nM
Method: FIG. 1 is a graph depicting the impact of MBG453 on the interaction between TIM3 and galectin-9. Competition was assessed as a measure of the ability of the antibody to block Gal9-SULFOTag signal to TIM-3 receptor, which is shown on the Y-axis. Concentration of the antibody is shown on the X-axis.
TIM-3 fusion protein (R&D Systems) was coated on a standard MesoScale 96 well plate (Meso Scale Discovery) at 2 μg/ml in PBS (Phosphate Buffered Saline) and incubated for six hours at room temperature. The plate was washed three times with PBST (PBS buffer containing 0.05% Tween-20) and blocked with PBS containing 5% Probumin (Millipore) overnight at 4° C. After incubation, the plate was washed three times with PBST and unlabeled antibody (F38-2E2 (BioLegend); MBG453; MBG453 F(ab′)2; MBG453 F(ab); or control recombinant human Galectin-9 protein) diluted in Assay Diluent (2% Probumin, 0.1% Tween-20, 0.1% Triton X-100 (Sigma) with 10% StabilGuard (SurModics)), was added in serial dilutions to the plate and incubated for one hour on an orbital shaker at room temperature. […] The plate was again washed three times with PBST, and Read Buffer T (1×) was added to the plate. The plate was read on MA600 Imager, and competition was assessed as a measure of the ability of the antibody to block Gal9-SULFOTag signal to TIM-3 receptor.

block of the interaction between TIM-3 and Galectin-9 (Gal9-SULFOTag signal to TIM-3): did not
B1: control Galectin-9 protein: unlabeled control recombinant human Galectin-9 protein (protein)
chain: AFSGSQAPYLSPAVPFSGTIQGGLQDGLQITVNGTVLSSSGTRFAVNFQTGFSGNDIAFHFNPRFEDGGYVVCNTRQNGSWGPEERKTHMPFQKGMPFDLCFLVQSSDFKVMVNGILFVQYFHRVPFHRVDTISVNGSVQLSYISFQPPGVWPANPAPITQTVIHTVQSAPGQMFSTPAIPPMMYPHPAYPMPFITTILGGLYPSKSILLSGTVLPSAQRFHINLCSGNHIAFHLNPRFDENAVVRNTQIDNSWGSEERSLPRKMPFVRGQSFSVWILCEAHCLKVAVDGQHLFEYYHRLRNLPTINRLEVGGDIQLTHVQT
